According to article PMC6007404 (Nucleic Acids Research, 2018):

Assays:
MotA [1] = target: T1, MotA (Enterobacteria phage T4, UniProt P22915 1-211); test: EMSA; EMSA: 0.01 pmol 32P-DNA, 1.7 pmol MotA, native 12% PAGE in 1x TBE at 4 C, other conditions as in ref 14; SPR: biotin-DNA on neutravidin chip, buffer as in ref 2
T1 sequence: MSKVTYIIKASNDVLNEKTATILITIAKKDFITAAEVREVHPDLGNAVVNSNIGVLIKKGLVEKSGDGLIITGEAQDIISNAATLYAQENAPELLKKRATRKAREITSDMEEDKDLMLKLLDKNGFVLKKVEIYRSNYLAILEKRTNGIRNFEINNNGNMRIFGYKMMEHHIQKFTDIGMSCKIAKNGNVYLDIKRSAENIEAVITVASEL

MotA [2] = target: T1, MotA; test: competition; EMSA vs labeled N6; EMSA: 0.01 pmol 32P-DNA, 1.7 pmol MotA, native 12% PAGE in 1x TBE at 4 C, other conditions as in ref 14; SPR: biotin-DNA on neutravidin chip, buffer as in ref 2
[3] = target: the molecule itself; test: crystal structure; MotA^linker/CTD mixed with 22 bp MotA box DNA at 1.15:1 DNA:protein; 23% PEG 8000, 0.12 M sodium acetate, 0.1 M sodium cacodylate pH 6.5, 3% glycerol; space group P6_(1), 2.96 Å; four protein copies and two DNA duplexes in the asymmetric unit
MotAlinker/CTD = target: T2, MotAlinker/CTD (Enterobacteria phage T4, UniProt P22915 93-211); test: X-ray crystallography; cognate complexes A and C; further non-cognate copies B and D on the opposite face; 2.96 A; EMSA: 0.01 pmol 32P-DNA, 1.7 pmol MotA, native 12% PAGE in 1x TBE at 4 C, other conditions as in ref 14; SPR: biotin-DNA on neutravidin chip, buffer as in ref 2
T2 sequence: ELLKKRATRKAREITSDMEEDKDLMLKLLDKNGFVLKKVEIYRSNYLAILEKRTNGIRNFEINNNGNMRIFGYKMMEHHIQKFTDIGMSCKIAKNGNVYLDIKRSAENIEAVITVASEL

MotA [4] = target: T1, MotA; test: EMSA; steep curve, value uncertain; EMSA: 0.01 pmol 32P-DNA, 1.7 pmol MotA, native 12% PAGE in 1x TBE at 4 C, other conditions as in ref 14; SPR: biotin-DNA on neutravidin chip, buffer as in ref 2

B1: EMSA 19-mer unmodified (dsDNA)
DNA 1: AATTATTTGCTTTAGATTA
DNA 2: TAATCTAAAGCAAATAATT
Kd (MotA [1]): ~140 nM

B2: EMSA mutant competitor (dsDNA)
DNA 1: AATTATTATACTTAGATTA
DNA 2: TAATCTAAGTATAATAATT
binding result (MotA [2]): no binding

B3: MotA^linker/CTD (C-terminal domain and linker region of MotA, amino acids 93-211) (domain or fragment, bacteriophage T4, UniProt P22915 93-211, looked up)
chain: ELLKKRATRKAREITSDMEEDKDLMLKLLDKNGFVLKKVEIYRSNYLAILEKRTNGIRNFEINNNGNMRIFGYKMMEHHIQKFTDIGMSCKIAKNGNVYLDIKRSAENIEAVITVASEL
binding result [3]: binds

B4: 22-mer MotA box DNA (crystal) (dsDNA)
DNA 1: GAAGCTTTGCTTAATAATCCAC
DNA 2: GTGGATTATTAAGCAAAGCTTC
binding result (MotAlinker/CTD): binds

B5: EMSA 19-mer GHMe/unmod (dsDNA)
DNA 1: AATTATTTGCTTTAGATTA
DNA 2: TAATCTAAAGCAAATAATT
modifications: beta-D-glucosyl-5-hydroxymethyl-dC at top C10
Kd (MotA [4]): ~20 nM
